The text below walks through data of US20220356229A1 (published 2022).

To fix the notation:
T1: HKU1 full length Spike (human coronavirus HKU1, UniProt Q5MQD0 13-1276)
T1 sequence: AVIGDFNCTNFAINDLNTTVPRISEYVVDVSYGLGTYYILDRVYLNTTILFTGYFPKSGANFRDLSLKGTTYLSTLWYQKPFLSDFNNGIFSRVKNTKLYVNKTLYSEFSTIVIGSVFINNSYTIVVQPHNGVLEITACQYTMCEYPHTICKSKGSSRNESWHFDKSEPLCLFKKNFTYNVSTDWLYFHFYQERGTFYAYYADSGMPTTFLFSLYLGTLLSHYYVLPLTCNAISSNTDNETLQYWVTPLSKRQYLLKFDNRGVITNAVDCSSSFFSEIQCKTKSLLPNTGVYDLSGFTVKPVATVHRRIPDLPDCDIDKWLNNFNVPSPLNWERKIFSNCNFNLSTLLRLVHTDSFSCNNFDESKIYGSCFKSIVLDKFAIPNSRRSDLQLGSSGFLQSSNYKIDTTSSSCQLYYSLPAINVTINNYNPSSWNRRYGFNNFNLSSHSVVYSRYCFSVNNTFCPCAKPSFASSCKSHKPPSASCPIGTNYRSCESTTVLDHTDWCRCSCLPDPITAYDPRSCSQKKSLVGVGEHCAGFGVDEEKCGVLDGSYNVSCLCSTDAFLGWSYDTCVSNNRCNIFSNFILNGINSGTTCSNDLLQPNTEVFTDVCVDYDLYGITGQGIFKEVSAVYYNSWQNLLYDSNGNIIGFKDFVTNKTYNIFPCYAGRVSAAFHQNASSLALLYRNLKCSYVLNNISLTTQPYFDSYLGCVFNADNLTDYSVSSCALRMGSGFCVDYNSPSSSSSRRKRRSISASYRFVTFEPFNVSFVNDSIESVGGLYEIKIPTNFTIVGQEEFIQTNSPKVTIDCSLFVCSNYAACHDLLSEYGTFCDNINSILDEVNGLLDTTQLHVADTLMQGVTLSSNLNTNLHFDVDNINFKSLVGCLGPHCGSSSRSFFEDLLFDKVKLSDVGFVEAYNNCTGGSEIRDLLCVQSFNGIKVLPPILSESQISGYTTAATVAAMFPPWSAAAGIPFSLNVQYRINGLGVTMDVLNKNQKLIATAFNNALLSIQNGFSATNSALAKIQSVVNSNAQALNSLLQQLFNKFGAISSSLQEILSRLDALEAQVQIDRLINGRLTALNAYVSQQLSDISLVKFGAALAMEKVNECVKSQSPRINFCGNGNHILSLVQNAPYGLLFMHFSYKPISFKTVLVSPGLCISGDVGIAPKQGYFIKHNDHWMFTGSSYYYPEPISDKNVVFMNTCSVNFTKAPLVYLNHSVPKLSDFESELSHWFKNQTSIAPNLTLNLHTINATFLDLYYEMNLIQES

T2: MERS full length Spike (MERS-CoV, UniProt K9N5Q8 18-1291)
T2 sequence: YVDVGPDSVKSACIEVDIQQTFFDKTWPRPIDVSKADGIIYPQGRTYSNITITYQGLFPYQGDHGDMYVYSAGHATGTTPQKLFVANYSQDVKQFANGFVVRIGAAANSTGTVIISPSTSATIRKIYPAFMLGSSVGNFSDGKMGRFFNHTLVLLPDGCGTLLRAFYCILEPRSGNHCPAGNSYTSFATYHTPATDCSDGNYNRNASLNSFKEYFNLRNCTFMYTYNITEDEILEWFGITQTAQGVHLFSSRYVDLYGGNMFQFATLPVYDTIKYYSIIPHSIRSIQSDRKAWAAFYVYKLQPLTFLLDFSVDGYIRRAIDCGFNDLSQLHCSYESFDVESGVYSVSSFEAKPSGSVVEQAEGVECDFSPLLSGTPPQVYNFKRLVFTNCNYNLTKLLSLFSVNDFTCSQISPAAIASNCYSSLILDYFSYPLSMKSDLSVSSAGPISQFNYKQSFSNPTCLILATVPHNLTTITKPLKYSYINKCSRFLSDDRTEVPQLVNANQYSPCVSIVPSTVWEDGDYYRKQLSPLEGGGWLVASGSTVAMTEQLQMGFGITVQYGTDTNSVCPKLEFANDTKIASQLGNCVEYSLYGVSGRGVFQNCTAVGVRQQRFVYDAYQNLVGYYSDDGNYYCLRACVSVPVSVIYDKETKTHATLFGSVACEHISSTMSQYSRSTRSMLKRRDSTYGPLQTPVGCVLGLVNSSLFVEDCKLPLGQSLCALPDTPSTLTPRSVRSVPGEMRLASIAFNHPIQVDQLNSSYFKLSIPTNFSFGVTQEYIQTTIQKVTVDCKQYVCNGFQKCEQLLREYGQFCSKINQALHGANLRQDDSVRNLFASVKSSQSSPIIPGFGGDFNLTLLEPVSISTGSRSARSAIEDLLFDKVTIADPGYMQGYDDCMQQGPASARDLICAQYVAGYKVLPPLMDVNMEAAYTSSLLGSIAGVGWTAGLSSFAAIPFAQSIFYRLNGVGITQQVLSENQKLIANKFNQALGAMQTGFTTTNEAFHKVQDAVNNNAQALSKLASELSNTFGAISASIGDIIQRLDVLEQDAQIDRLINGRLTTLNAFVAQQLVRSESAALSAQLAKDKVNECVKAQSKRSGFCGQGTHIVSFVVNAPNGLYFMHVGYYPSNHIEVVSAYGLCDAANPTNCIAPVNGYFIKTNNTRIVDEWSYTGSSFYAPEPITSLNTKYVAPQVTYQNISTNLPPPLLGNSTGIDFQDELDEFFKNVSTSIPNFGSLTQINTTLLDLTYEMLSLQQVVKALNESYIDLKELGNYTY

B1: mAb 1444 (antibody, V domains shown)
VH: QVQLVQSGAEVKKPGASVKVSCKASGYTFTAYYMHWVRQAPGQGLEWMGWINPNSDDTNYAQKFQGRVTMTRDTSISTAYMELSRLRSDDTAVYYCAREEGVFTIGDRYFDLWGRGTLVSVSS
VL: QTVVTQEPSFSVSPGGTVTLTCGLSSGSVSTSYYPSWYQQTPGQAPRTLIYNTNTRSSGVPDRFSGSILGNKAALTITGAQADDESDYYCVLYMGSGIWVFGGGTKLTVLG
B2: mAb 1538 (antibody, V domains shown)
VH: EVQLLESGGGLVQPGGSLRLSCAASGFTFSSYAMSWVRQAPGKGLEWVSGISDSGGSTYYADYVKGRFTISRDNSKDTLYLQMNSLRAEDTAVYYCAKDRGNEYALTHYYYYAMDVWGQGTTVTVSS
VL: DIQMTQSPSSLSASVGDRVTITCRASQSISSYLNWYQQKPGKAPKLLIYAAYSLQSGVPSRFSGGGSGTDFTLTISSLQPEDFATYFCQQSYSTPITFGQGTRLEIKR
B3: mAb 1149 (antibody, V domains shown)
VH: QVQLVQSGAEVKKPGASVKVSCKASGYTFASYDINWVRQATGQGPEWMGWMIPNIGNTGYAQKFQGRVTMTRNTSISTAYMELSSLTSEDTAVYYCARVSRLFNDFGLRHEAPVDFWGQGTRVTVSS
VL: QSVLTQPPSVSGAPGQRVTISCTGSSSNIGAGYDVHWYQQLPGTAPKLLIYGYSSRPSGVPDRFSGSKSGTSASLAITGLQAEDEADYYCQSYDSSLSVLFGGGTKLTVLG
B4: mAb 1585 (antibody, V domains shown)
VH: QVQLVESGGGVVQPGRSLRLSCAASGFTFSRFTLHWVRQAPGKGLEWVAVISYDGSNKYYADSVKGRFTISRDNSKSTLYLQMNSLRAEDTGVYYCARDPSTVTGYFDYWGQGTLVTVSS
VL: SYVLTQPPSVSVAPGKTAKISCGGDSIGSKSVHWYQQKPGQAPVLVIYYDNDRPSGIPERFSGSNSGNTATLTISRVEAGDEADYYCQVWDIGVVFGGGTKLTVLG
B5: mAb 1404 (antibody, V domains shown)
VH: QITLKESGPTLVKPTQTLTLTCTFSGFSLSISGVGVGWLRQPPGKALEWLALIYWDDDKRYSPSLKSRLTISKDTSKNQVVLKMTNIDPVDTATYYCAHHSISTIFDHWGQGTLVTVSS
VL: QSALTQPASVSGSPGQSITISCTATSSDVGDYNYVSWYQQHPGKAPKLMIFEVSDRPSGISNRFSGSKSGNTASLTISGLQAEDEADYYCSSYTTSSAVFGGGTKLTVLG
B6: mAb 1495 (antibody, V domains shown)
VH: QVQLVESGGGVVQPGRSLRLSCTASGFTFSSYAMHWVRQAPGKGLEWVAVISYDGNNKYYGDSVKGRFTISRDNSKNTLYLQMNSLRAEDTAVYYCAKGADTPHYSGYHFLSVGYYFYGMDVWGQGTTVTVSS
VL: DIQMTQSPSSLSASVGDRVTITCRASQSISYYLNWYQQKPGKAPQLLIYAASSLQSGVPSRFSGSRSGTDFTLTISSLQPEDFATYYCQQSYSTPFTFGPGTKVDIKR
B7: antibody 294 (antibody, V domains shown)
VH: EVQLVESGGGLVQPGGSLRLSCAASGFTVSSNYMNWVRQAPGKGLEWVSVIYSGGSTYYADSVKGRFTISRDNSKNTLYLQMNSLRAEDTAVYYCARDLGPSGMDVWGQGTTVTVSS
VL: DIQMTQSPSSVSASVGDRVTITCRASQGISSWLAWYQQKPGKAPKLLIYAASSLQSGVPSRFSGSGSGTDFTLTISSLQPEDFATYYCQQANSFPLFGGGTKVEIK
B8: antibody 300 (antibody, V domains shown)
VH: QVQLVESGGGVVQPGRSLTLSCAASGFTFSSYAMHWVRQAPGKGLEWVALISYDGNNKYYADSVKGRFTFSRDNSKNTLYLQMNSLRAEDTAVYYCARTNSGSYRTAFDYWGQGTLVTVSS
VL: DIQMTQSPSTLSASVGDRVTITCRASQSISIWLAWYQQKPGKAPKLLIYKASSLESGVPSRFSGSGSGTEFTLTISSLQPDDFATYYCQQYNSLWTFGQGTKVEIK
B9: antibody 295 (antibody, V domains shown)
VH: QVQLQESGPGLVKPSQTLSLTCTVSGGSISSSDYYWSWIRQPPGKGLEWIGYIYYSGSTYYNPSLKSRVTISVDTSKNQFSLKLSSVTAADTAVYYCARVVGYCSSTSCYVDYWGQGTLVTVSS
VL: EIVLTQSPATLSLSPGERVTLSCRASQSVSSYLAWYQQKPGQAPRLLIYDASNRATGIPARFSGSGSGTDFTLTISSLEPEDFAVYYCQQRSNWPPGLTFGGGTKVEIK
B10: antibody 288 (antibody, V domains shown)
VH: EVQLVESGGGLVQPGGSLRLSCAASGFTFSSYDMHWVRQATGKGLEWVSAIGTAGDTYYPGSVKGRFTISRENAKNSLYLQMNSLRAGDTAVYYCARGANRDYDILTGYYSYYYYGMDVWGQGTTVTVSS
VL: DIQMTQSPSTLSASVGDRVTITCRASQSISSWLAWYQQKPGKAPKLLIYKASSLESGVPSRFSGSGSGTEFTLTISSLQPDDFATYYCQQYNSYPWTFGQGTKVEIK
B11: antibody 301 (antibody, V domains shown)
VH: QVQLVQSGAEVKKPGASVKVSCKVSGYTLTELSMHWVRQAPGKGLEWMGGFDPEDGETIYAQKFQGRVTMTEDTSTDTAYMELSSLRSEDTAVYYCATAFCGGDCYPPDALDIWGQGTMVTVSS
VL: DIQMTQSPSSVSASVGDRVTITCRASQGISSWLAWYQQKPGKAPKLLIYAASSLQSGVPSRFSGSGSGTDFTLTISSLQPEDFATYYCQQANSFPLTFGGGTKVEIK

The target in the first test is T1, HKU1 full length Spike.
For B1, the “median fluorescence intensity, fold over isotype control” value (from here on “median fluorescence intensity, fold”) came out at 0.98 fold over isotype.
On the same count and under the same terms, to B2 belongs 0.97 fold over isotype; to B3, 0.83 fold over isotype.
As to B4, the “median fluorescence intensity, fold” value is 0.88 fold over isotype.
Same read-out and setting: to B5 belongs 0.94 fold over isotype; to B6, 1.05 fold over isotype.

Another test has as its target T2, MERS full length Spike.
Regarding B1, the “median fluorescence intensity, fold” value was 0.98 fold over isotype.
Same read-out and setting: to B2 belongs 0.95 fold over isotype; to B3, 1.04 fold over isotype; to B4, 0.94 fold over isotype.
For the molecule B5, the “median fluorescence intensity, fold” value came to 0.91 fold over isotype.
Still for that read-out and setting: then B6, with 0.93 fold over isotype.

For the next test, the target named is SARS-CoV full length Spike (SARS-CoV, UniProt P59594 14-1190).
In the case of B1, the “median fluorescence intensity, fold” value was determined as 1.03 fold over isotype.
Consider B2, for which the “median fluorescence intensity, fold” value was found to be 0.99 fold over isotype.
For the molecule B3, the “median fluorescence intensity, fold” value was found to be 1.05 fold over isotype.
The same measure, in the same setting: to B4 belongs 25.8 fold over isotype; to B5, 0.97 fold over isotype.
Same read-out and setting: to B6 belongs 1.08 fold over isotype.

In the next test the target is SARS-CoV-2 Spike (S) protein, wild type, full length (SARS-CoV-2, UniProt P0DTC2 14-1208).
In the case of B7, the “bead binding signal (fold over isotype)” value was determined as 1230 fold over isotype.
On the same count and under the same terms, then B8, with 721 fold over isotype; and B9, with 599 fold over isotype.
The same measure, in the same setting: then B10, with 495 fold over isotype; and B11, with 865 fold over isotype.
